Assay results from article PMC6511850 (Nucleic Acids Research, 2019).

Target: the molecule itself
Assay: SEC

B1: Bacillus subtilis m1A22 tRNA methyltransferase TrmK (wild type) (enzyme, UniProt P54471 1-238, looked up)
chain: MNELKLSKRLQTVAEYIPNGAVMADIGSDHAYLPCYAVLNHKASGAIAGEITDGPFLSAKRQVEKSGLNSHISVRQGDGLEVIKKGEADAITIAGMGGALIAHILEAGKDKLTGKERLILQPNIHAVHIREWLYKERYALIDEVILEEDGKCYEVLVAEAGDRDAAYDGISLSAGMLVGPFLAKEKNAVFLKKWTQELQHTQSIYEQISQAADTEQNKQKLKELADRMELLKEVIDHG
binding result: binds
